According to the supplement of paper PMC12042874:
± gives the uncertainty stated by the source.

experiment: amyloid nucleation score (Sup35N fusion, yeast selection) (log enrichment); library NNK1; higher = more nucleation; inactive = no reads after selection
Procedure, shortened: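 The nucleation score is the DiMSum log enrichment of output over input reads, centred on the mode score of non-aggregating sequences. Only sequences with 100 or more input reads were scored, using Illumina sequencing of input and output plasmid inserts. Psi-negative yeast expressing Sup35N fused to peptides of 20 random codons were induced 24 hours with 100 μM copper sulfate and grown 7 days at 30°C on medium lacking adenine and uracil.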

Row | Substance | amyloid nucleation score
1 | QMLIAGGAKTGTPLFPGASS | 0.358 ± 0.5
2 | PVSDLVIFLQLRFRNTCMLP | 0.952 ± 0.92
3 | ENNTGSVETLYRCSEKLVLE | 0.228 ± 0.27
4 | MSDSRIVTVIVRRQPVSQRS | 1.33 ± 0.84
5 | YSTSSEVEVDWLSVSKFVSI | 0.146 ± 0.27
6 | NLTWRGSRDTFECYVDGA | -0.186 ± 0.47
7 | VFQVTWGWSCMREVELSSGT | 0.343 ± 0.67
8 | LWIQMLAWCSRCM | 1.65 ± 0.32
9 | EMTPLLCATVRKPWKRVMIN | -0.311 ± 0.73
10 | VNFYDRAYRIWCCRNASE | 3.34 ± 0.088
11 | WHALVNRGHAWSRIGQDAGC | -0.003 ± 0.79
12 | CLCDAISYSGIIKDVDKVCE | 0.875 ± 0.93
13 | MVIHP | 3.57 ± 0.087
14 | LCLYGVC | -0.164 ± 0.56
15 | GCRPMSFKMSVAVGHLMGDT | 2.79 ± 0.2
16 | TYCKASGVR | 0.371 ± 0.75
17 | QLEFVWLILTYHEGHYRIGK | inactive
18 | SNTSRLVRRVVQSPYTTCGG | 0.312 ± 0.46
19 | GWAGRVCNRGKTWDIDLRQR | -0.7 ± 0.34

Row | Substance | amyloid nucleation score
20 | KGQFF | 0.835 ± 0.75
21 | TWQFCDVRL | -0.064 ± 0.39
22 | VGHYDNSYGRNGLLTTR | -0.179 ± 0.53
23 | CWTLSDVLFDNNLFTMNMGP | -0.291 ± 0.67
24 | WSATSATMLQSLPVQEEHVD | -0.38 ± 0.83
25 | FSCSTCNVCNERHPEVFTYD | 1.15 ± 0.51
26 | QKSIDLYFEKRHTISTQNR | -0.455 ± 0.56
27 | LRSGKAQYTEVVLLRIRPGF | -1.4 ± 2.7
28 | TIAGHYYLWS | -0.291 ± 0.78
29 | KVEWVSDTRVNLLGTFVLKA | 1.18 ± 0.43
30 | VNRFCSVQVDS | 0.074 ± 0.47
31 | FVINSTIRKVFFGFPDWCMC | -0.135 ± 0.3
32 | HGMWNTQVTVTWYTSADLFV | -0.093 ± 0.52
33 | GTRWSHTWWPGTNLMLCVQG | -0.453 ± 0.26
34 | HVVFVMDVRYPKIAVVYLLA | 1.1 ± 0.66
35 | NYYLECWYSCMGNTETSSKG | 0.212 ± 0.53
36 | GMRVLQIFGTGGGDSNTRGD | 0.84 ± 0.36
37 | LTVKCCDVSWVRFWYCIAGG | 6.618 ± 0.056
38 | CERLKT | 0.784 ± 0.35

Row | Substance | amyloid nucleation score
39 | VHLCLCRCVLCAENGLWPFS | -0.761 ± 1.2
40 | IVMFVGFCGENKLAWDSRRK | 5.03 ± 0.05
41 | TLLNGFFATSYCGCFFGSRT | 3.95 ± 0.13
42 | QVNFNRRFNTQAIFNLSGVP | 0.947 ± 0.71
43 | SCLCFLNPTNFEKLLISFVP | 0.725 ± 0.53
44 | NSPGCKCRSKGLISINST | inactive
45 | DCMIVGLHHIKVRHSLFVRW | -0.128 ± 0.33
46 | TYRVVFVAGIHQFNFVPLVR | 0.009 ± 1.1
47 | INQKSMMSSSDWRRWYFSGR | inactive
48 | GVCWRDYGLEAGTGAQVQQC | 3.03 ± 0.15
49 | MRLMVGYRRCFASLVKNVCT | -0.963 ± 1.8
50 | GEKYNIFNFGFVLCSSLVLF | 8.116 ± 0.049
51 | KLLSGRLDTFSGGGDYMCPV | inactive
52 | VFWSV | -0.096 ± 0.5
53 | YIVPQLT | 1.47 ± 0.81
54 | FVHDLWLGYGVNFLIAVMCS | 0.209 ± 0.34
55 | DNQVLCYECRGYWMQTVHVL | 0.069 ± 0.97
56 | YKHWLYKLSCLEARSEYCGF | 0.444 ± 1.1
57 | FVGFGWYCLDFFHFLNASLG | -0.29 ± 1.4
